This assay concerns the target T1, recombinant αVβ5 human integrin extracellular domains (human, UniProt P06756 31-992; P18084 24-719).
T1 construct: integrin alpha-V, human, extracellular domain; integrin beta-5, human, extracellular domain; also called integrin αVβ5 heterodimer; source: bought: R&D Systems
The assay can be described thus: single-molecule magnetic tweezers; PilY1 construct tethered between HaloTag-ligand glass and streptavidin-coated superparamagnetic bead, held at constant low force (5-6 pN, below 7 pN) where I1 and I2 fold and unfold; 200 nM integrin added in binding buffer (10 mM Hepes pH 7.2, 150 mM NaCl, 10 mM ascorbic acid, 2 mM CaCl2, 1 mM MgCl2, 1 mM MnCl2); binding read as shortening of the unfolded extension of I2. The settings on record: both partners purified.

T1 sequence (P06756 31-992, chain 1 of 2): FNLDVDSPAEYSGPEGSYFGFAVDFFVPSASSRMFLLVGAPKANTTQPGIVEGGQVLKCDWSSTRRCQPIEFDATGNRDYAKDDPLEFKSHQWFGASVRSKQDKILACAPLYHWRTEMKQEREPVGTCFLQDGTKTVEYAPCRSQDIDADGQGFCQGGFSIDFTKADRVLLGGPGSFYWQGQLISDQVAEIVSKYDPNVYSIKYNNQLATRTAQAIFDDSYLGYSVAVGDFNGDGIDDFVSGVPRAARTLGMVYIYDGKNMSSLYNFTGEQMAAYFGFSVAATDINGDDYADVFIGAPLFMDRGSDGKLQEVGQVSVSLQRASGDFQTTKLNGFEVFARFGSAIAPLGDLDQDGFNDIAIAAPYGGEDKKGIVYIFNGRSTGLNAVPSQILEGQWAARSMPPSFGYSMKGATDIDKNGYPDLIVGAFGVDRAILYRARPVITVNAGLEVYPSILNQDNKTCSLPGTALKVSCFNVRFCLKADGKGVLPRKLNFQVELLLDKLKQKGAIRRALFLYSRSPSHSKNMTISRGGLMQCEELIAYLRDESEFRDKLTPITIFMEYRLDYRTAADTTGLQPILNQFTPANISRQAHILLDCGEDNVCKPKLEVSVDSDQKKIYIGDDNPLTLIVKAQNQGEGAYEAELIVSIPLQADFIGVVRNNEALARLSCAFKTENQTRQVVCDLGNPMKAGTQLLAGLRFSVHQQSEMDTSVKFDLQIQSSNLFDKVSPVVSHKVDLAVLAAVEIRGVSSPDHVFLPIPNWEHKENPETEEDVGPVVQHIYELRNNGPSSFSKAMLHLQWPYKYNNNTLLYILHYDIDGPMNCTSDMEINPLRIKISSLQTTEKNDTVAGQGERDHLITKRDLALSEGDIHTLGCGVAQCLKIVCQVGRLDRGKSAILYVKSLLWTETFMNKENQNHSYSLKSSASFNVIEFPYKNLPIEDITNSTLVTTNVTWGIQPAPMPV
T1 sequence (P18084 24-719, chain 2 of 2): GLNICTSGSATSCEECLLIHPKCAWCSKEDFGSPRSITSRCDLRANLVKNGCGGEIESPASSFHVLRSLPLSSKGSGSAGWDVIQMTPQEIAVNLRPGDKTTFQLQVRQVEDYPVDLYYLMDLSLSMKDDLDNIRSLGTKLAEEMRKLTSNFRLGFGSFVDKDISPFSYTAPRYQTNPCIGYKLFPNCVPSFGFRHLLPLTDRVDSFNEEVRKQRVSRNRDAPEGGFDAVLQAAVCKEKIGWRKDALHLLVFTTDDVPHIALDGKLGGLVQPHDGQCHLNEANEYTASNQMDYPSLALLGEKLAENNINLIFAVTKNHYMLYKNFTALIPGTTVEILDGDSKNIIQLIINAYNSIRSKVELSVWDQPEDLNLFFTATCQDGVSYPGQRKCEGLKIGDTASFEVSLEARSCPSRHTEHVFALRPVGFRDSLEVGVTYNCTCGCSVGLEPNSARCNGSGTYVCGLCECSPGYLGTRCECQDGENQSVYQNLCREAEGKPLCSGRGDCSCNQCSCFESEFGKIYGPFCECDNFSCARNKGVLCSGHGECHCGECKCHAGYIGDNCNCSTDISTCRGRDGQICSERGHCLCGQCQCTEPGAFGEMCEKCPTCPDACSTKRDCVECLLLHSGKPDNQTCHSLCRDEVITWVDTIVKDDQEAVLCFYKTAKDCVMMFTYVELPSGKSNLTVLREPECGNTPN

B1: PilY1^501−1161 chimeric polyprotein (HaloTag-(I32)2-PilY1 residues 501-1161-(I32)2-HisTag-AviTag) (domain or fragment)
chain: ISSSLQEDDTGDKLTRFAYQTSFASDKNWAGDLTRYSLTTQDKATVQTKLWSAQSILDAMPNGGAGRKIMMAGSGTSGLKEFTWGSLSADQQRQLNRDPDRNDVADTKGQDRVAFLRGDRRKENSDNFRTRNSILGDIINSSPATVGKAQYLTYLAQPIEPSGNYSTFAEAQKTRAPRVYVGANDGMLHGFDTDGNETFAFIPSAVFEKLHKLTARGYQGGAHQFYVDGSPVVADAFFGGAWHTVLIGSLRAGGKGLFALDVTDPANIKLLWEIGVDQEPDLGYSFPKPTVARLHNGKWAVVTGNGYSSLNDKAALLIIDLETGAITRKLEVTGRTGVPNGLSSPRLADNNSDGVADYAYAGDLQGNLWRFDLIAGKVNQDDPFSRANDGPAVASSFRVSFGGQPLYSAVDSAGAAQAITAAPSLVRHPTRKGYIVIFGTGKYFENADARADTSRAQTLYGIWDQQTKGEAAGSTPRLTRGNLQQQTLDLQADSTFASTARTIRIASQNPVNWLNNDGSTKQSGWYLDFMVNGTLKGEMLIEDMIAIGQVVLLQTITPNDDPCADGASNWTYGLDPYTGGRTSFTVFDLARQGVVDSKSDYSYNKQNVAVSGTEQKGLGGLTLSTNEQGNPEVCSSGECLTVNPGPNTRGRQNWRPIEGKN
modifications: biotin on the AviTag
notes: gene optimized for expression in E. coli; The HisTag lies between the last I32 and the AviTag; also called PilY1 C-terminal section; source: E. coli BL21 Star, purified (HisPur Cobalt resin, Superdex 200 SEC), biotinylated in vitro; not shown: HaloTag, N-terminal, kept; 2x human titin I32 domain, N-terminal, kept; 2x human titin I32 domain, C-terminal, kept; AviTag (biotinylated), C-terminal, kept
With B1, the binding result is “binds”.
